Results: patent US20220049236A1 (YEDA RESEARCH AND DEVELOPMENT, published 2022)

Columns and labels:
[1] = biological target: T1, LOX catalytic domain (catalytic domain of human LOX, 169-417) (human, UniProt P28300 170-417); experiment: ELISA, plate coated with LOX catalytic domain
T1 construct: Expressed from pET28 in E. coli BL21 SHuffle, purified on HisTrap and labelled through its His tag for MST
T1 sequence: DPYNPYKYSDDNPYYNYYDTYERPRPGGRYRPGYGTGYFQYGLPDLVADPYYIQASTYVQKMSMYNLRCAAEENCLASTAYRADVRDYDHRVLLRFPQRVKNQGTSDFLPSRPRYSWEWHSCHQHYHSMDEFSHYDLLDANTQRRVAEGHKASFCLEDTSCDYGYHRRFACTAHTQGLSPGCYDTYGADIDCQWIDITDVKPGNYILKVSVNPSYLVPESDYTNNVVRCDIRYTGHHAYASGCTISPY
Method: A ninety-six-well plate (Nunc) was coated with LOX-catalytic domain, HSP70 or BSA at 10 μg/mL. After blocking with 2% BSA in PBS, the plate was incubated with Fc and Fc-LPD for 1 hour at 37° C. Bound antibodies were detected by peroxidase-conjugated antibody goat anti-human (Jackson ImmunoResearch). EC₅₀ was calculated with GraphPad Prism from […] curve fitting analysis.
The pYD5-Fc-LPD plasmid was used as a template in order to create point mutations in the three N-glycosylated sites N81, 97, 144 in the LPD, which are the N346, 362, 409 in our Fc-LPD construct with Q SEQ ID NO: 11. The mutations were performed with site-directed mutagenesis according to kit manufacturer instructions. EC₅₀ of generated Fc-LPD N346, 362, 409Q inhibitor was measured by ELISA (FIG. 1C) ranged from 10 to 2000 nM against the LOX catalytic domain (EC₅₀=58 nmol/L).

[2] = biological target: T2, Heat shock protein HSP 90-alpha (human, UniProt P07900 2-732); experiment: IP from HDF supernatant, LFQ mass spectrometry; ratio against Fc control
T2 construct: also called HSP90AA1

[3] = biological target: T3, Heat shock protein HSP 90-beta (human, UniProt P08238 2-724); experiment: as above
T3 construct: also called HSP90AB1

[4] = biological target: T4, Heat shock cognate 71 kDa protein (human, UniProt P11142 2-646); experiment: as above
T4 construct: also called HSPA8

[5] = biological target: T5, Heat shock 70 kDa protein 1A/B (human, UniProt P0DMV9 2-641); experiment: as above
T5 construct: also called Heat shock 70 kDa protein 1B; HSPA1B

[6] = biological target: T6, 60 kDa heat shock protein, mitochondrial (human, UniProt P10809 27-573, limits assumed); experiment: as above
T6 construct: also called HSPD1; HSP60

Filaggrin-2 = biological target: T7, Filaggrin-2 (human, UniProt Q5D862 1-2391, limits assumed); experiment: as above
T7 construct: also called FLG2

Hornerin = biological target: T8, Hornerin (human, UniProt Q86YZ3 1-2850, limits assumed); experiment: as above
T8 construct: also called HRNR

T6 sequence (P10809 27-573 limits assumed): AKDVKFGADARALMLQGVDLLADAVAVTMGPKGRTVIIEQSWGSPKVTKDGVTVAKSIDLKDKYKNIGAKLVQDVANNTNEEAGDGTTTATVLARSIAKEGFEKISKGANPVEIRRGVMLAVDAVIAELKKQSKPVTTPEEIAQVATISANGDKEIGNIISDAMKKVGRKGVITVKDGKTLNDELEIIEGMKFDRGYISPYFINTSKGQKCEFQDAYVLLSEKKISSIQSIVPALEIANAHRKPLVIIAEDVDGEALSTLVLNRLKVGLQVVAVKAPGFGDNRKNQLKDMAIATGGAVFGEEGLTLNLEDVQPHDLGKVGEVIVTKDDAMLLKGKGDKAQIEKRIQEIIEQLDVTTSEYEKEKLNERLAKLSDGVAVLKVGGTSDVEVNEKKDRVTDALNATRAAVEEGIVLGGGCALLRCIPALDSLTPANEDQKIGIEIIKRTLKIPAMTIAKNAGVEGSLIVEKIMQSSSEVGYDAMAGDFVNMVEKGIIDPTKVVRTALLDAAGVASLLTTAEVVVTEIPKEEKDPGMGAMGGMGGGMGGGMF
T3 sequence (P08238 2-724 limits assumed): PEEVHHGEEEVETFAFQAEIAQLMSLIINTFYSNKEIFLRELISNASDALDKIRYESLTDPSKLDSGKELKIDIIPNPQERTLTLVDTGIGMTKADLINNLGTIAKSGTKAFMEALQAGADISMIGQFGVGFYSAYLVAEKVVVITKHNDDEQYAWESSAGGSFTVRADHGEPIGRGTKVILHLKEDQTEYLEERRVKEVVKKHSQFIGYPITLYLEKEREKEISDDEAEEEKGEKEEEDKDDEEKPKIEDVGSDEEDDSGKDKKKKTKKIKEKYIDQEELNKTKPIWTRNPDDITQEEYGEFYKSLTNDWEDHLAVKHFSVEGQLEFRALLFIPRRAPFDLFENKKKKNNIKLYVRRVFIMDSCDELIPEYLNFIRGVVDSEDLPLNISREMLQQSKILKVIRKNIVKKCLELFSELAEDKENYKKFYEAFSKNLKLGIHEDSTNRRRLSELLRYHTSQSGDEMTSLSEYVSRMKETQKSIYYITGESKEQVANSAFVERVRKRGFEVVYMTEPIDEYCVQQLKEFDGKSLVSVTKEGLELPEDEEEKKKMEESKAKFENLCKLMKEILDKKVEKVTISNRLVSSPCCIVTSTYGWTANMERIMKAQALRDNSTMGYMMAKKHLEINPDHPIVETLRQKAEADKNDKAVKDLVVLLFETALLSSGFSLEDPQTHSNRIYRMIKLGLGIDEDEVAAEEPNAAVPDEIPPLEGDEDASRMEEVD
T4 sequence (P11142 2-646 limits assumed): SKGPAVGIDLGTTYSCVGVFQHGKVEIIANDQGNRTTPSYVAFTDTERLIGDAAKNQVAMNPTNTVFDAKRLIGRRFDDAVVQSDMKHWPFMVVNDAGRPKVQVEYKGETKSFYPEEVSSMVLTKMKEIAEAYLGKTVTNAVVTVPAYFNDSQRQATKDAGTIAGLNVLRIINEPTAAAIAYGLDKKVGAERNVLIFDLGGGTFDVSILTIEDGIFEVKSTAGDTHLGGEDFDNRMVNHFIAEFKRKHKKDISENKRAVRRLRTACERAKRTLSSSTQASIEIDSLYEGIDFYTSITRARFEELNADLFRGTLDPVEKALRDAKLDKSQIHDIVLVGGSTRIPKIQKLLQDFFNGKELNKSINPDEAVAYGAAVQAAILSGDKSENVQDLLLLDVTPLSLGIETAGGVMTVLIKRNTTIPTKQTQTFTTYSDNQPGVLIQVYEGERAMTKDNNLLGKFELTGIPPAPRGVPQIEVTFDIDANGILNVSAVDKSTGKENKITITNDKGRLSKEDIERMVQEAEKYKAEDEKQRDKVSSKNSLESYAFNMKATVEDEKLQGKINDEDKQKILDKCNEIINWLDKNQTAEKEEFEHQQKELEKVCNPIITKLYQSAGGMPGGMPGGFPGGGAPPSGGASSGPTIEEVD
T7 sequence (Q5D862 whole entry): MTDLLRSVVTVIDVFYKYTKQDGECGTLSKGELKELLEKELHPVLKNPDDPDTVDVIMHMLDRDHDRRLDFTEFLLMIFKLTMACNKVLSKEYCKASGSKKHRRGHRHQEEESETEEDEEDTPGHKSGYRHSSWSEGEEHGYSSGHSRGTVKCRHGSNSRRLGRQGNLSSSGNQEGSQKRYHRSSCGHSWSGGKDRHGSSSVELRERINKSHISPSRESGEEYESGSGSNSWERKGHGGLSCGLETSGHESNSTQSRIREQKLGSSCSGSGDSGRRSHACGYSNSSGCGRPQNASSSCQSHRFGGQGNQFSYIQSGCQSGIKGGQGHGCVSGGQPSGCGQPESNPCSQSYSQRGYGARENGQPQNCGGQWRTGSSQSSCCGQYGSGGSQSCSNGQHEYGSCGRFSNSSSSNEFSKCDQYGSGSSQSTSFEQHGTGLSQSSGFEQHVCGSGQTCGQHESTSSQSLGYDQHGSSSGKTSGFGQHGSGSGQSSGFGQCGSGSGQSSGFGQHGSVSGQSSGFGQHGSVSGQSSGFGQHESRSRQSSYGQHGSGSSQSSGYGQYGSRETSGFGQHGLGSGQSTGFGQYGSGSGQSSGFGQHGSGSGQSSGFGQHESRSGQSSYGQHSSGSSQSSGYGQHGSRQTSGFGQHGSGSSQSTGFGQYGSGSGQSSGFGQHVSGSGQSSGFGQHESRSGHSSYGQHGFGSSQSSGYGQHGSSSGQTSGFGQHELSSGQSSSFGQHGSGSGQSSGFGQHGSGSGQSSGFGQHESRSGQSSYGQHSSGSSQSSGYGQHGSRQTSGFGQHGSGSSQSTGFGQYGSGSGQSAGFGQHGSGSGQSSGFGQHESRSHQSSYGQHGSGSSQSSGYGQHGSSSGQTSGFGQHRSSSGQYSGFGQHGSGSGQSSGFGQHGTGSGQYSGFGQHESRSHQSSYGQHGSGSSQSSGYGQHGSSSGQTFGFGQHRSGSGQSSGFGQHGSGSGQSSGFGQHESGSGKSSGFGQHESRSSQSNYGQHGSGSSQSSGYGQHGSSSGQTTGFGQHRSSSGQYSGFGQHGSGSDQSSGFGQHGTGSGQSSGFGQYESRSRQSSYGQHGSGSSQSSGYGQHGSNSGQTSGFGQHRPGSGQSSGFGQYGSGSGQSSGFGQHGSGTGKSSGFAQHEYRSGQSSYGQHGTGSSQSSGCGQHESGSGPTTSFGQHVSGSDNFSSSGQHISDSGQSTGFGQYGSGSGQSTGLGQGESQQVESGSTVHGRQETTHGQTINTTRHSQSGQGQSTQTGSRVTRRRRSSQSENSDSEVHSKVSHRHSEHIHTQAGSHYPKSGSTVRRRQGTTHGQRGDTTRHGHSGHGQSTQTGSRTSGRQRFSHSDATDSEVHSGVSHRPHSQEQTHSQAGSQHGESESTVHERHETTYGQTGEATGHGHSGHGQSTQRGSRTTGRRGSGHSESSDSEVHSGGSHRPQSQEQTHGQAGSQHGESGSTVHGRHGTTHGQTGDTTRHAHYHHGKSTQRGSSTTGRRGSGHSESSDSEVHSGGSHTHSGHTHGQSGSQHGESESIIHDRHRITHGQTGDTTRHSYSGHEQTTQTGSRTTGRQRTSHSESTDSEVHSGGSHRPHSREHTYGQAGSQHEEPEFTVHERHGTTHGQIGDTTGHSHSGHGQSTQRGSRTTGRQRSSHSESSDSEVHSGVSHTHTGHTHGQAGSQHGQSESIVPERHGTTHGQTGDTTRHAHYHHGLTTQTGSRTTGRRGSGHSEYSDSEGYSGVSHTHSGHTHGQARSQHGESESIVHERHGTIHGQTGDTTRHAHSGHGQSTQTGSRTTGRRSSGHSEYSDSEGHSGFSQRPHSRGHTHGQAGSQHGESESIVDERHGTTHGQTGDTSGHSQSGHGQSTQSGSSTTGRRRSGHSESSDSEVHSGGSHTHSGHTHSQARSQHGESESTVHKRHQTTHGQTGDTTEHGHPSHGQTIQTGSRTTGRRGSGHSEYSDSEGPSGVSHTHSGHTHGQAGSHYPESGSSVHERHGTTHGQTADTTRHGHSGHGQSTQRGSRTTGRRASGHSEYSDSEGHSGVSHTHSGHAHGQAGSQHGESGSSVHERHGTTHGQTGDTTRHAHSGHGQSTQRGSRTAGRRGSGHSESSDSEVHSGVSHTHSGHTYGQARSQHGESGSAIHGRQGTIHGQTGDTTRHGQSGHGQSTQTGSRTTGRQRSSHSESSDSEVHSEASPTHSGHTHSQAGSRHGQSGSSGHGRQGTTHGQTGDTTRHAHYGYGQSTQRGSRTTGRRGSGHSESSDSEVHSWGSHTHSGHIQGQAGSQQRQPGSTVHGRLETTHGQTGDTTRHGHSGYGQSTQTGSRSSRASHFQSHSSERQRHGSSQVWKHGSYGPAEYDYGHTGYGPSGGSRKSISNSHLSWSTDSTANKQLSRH
T5 sequence (P0DMV9 2-641 limits assumed): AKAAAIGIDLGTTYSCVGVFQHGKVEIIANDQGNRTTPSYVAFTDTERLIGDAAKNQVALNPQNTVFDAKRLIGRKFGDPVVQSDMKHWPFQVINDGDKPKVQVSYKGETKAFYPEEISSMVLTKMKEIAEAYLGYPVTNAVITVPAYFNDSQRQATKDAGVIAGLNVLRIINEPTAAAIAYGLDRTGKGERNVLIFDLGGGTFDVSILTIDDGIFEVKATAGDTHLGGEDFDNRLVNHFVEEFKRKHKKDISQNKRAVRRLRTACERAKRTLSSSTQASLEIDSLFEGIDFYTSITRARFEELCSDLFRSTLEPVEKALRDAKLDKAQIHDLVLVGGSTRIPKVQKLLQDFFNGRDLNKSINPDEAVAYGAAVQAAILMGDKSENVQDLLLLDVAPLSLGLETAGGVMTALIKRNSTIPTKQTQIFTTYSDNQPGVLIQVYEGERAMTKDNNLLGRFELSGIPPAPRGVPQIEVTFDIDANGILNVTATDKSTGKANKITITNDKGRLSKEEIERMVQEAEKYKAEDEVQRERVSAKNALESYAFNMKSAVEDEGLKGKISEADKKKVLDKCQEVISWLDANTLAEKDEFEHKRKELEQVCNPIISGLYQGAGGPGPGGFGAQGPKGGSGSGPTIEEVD

B1: Fc-LPD N346, 362, 409Q (Fc fusion)
chain: APPAAGQQQPPREPPAAPGAWRQQIQWENNGQVFSLLSLGSQYQPQRRRDPGAAVPGAAQASAQQPRTPILLIRDQRTAAARTRTAGSSGVTAGRPRPTARHWFQAGYSTSRAREAGASRAEQQTAPGEVPALSNLRPPSRVDGMVGD
notes: Fc-LPD with the three N-glycosylation sites N81, 97, 144 of the LPD (N346, 362, 409 in the construct) changed to Q by site-directed mutagenesis of pYD5-Fc-LPD; also called non-glycosylated form
EC50 [1]: 58 nM
Ratio Fc-LPD-N346, 409, 456Q:Fc [2]: 0.2
Ratio Fc-LPD-N346, 409, 456Q:Fc [3]: 1.8
Ratio Fc-LPD-N346, 409, 456Q:Fc [4]: 0.9
Ratio Fc-LPD-N346, 409, 456Q:Fc [5]: 30
Ratio Fc-LPD-N346, 409, 456Q:Fc [6]: 0.1
Ratio Fc-LPD-N346, 409, 456Q:Fc (Filaggrin-2): 0
Ratio Fc-LPD-N346, 409, 456Q:Fc (Hornerin): 0.2
